Data on four molecules can be found in US20180280504A1, “GLYCAN-INTERACTING COMPOUNDS AND METHODS OF USE” (SIAMAB THERAPEUTICS, INC., priority 2014, published 2018).

Data set [1] in a line: Glycan array, 9-O-acetylated GcSTn. Conditions: glycan microarray, Cy3 anti-mouse IgG. In kind it is binding. The method, then:
Optimized glycan arrays comprise 71 chemically synthesized and well-defined glycans, most of which comprise Neu5Ac and Neu5Gc glycan pairs.
300 ml of epoxy blocking buffer is prepared by combining 15 ml of 2 M Tris buffer (pH 8) with 0.9 ml of 16.6 M ethanolamine and 284.1 ml of distilled water. The solution was brought to a final pH of 9.0 with HCl. The solution is filtered using a 0.2 μM nitrocellulose membrane. The epoxy buffer solution as well as 1 L of distilled water are pre-warmed to 50° C. Glass slides are arranged in a slide holder and quickly submerged in a staining tub with the warmed epoxy blocking buffer. Slides are incubated in the epoxy blocking buffer for 1 hour at 50° C. with periodic shaking to deactivate epoxy binding sites. Next, slides are rinsed and blocked with PBS with 1% OVA at 25° C. for one hour. Serum samples with polyclonal antibodies (1:1000) or purified monoclonal antibodies (1 ug/mL), are diluted in PBS with 1% OVA and added to the glycan array for one hour at 25° C. After extensive washing, binding of antibodies are detected by incubating glycan microarray slides with Cy3-conjugated anti-mouse IgG (Jackson Immunoresearch, West Grove, Pa.) for one hour. Slides are then washed extensively, dried and scanned with a Genepix 4000B scanner (Laser at 100%; gain at 350; 10 μm pixels). […]

The nature of data set [2]: MDA-MB-231-STn xenograft model, percent body weight change. It counts as in vivo, mouse. The conditions noted are these: 5 mg/kg i.p. once weekly. An excerpt:
To evaluate antibody drug conjugates (ADCs) as single agents in an MDA-MB-231-STn Human Breast Tumor Xenograft model, 40 ICR SCID female mice age range 6-8 weeks were randomly separated into four separate groups, one vehicle control and three ADC treatments, then maintained individually with food/water ad libitum (see the following Table).
Animals were inoculated in the subcutaneous right flank with 5×10^6 breast tumor cells (MDA-MB-231-STn) in matrigel, mean tumor size was 175-225 mm^3 at study initiation. Animals were given either vehicle or antibody drug conjugates (5 mg/kg) by intraperitoneal injection once weekly. Tumor volume and percent body weight change were determined once weekly until study termination. The study was terminated when the tumor in the vehicle control animal reached a mean tumor weight ≥1500 mm^3. SE refers to “standard error.”

The subject of data set [3] is MDA-MB-231 parental cells (MDA-STn−). As to the kind of experiment: Flow cytometry-based analysis of antibody binding, parental cells. More on the design: species or system human. The method, then: Flow cytometry-based analysis is carried out to elucidate the curve-dose response for binding of antibodies to cell surface antigens. For these analyses, three cell lines are employed.
MDA-MB-231 cells are human breast cancer cells. They are grown in Earle's Minimum Essential Medium supplemented with 10% fetal calf serum (FCS), 100 μg/ml penicillin, 100 UI/ml streptomycin and 45 μg/ml gentamycin. MCF-7 cells are also human breast cancer cells and are grown under the same conditions as MDA-MB-231 cells. Stably transfected versions of MDA-MB-231 and MCF-7 cells (clone TAH3.P10 for MDA-MB-231 cells and clone A12.1 for MCF-7 cells) that over express GalNAc α2,6-sialyltransferase (ST6GalNAc 1,) are also cultured under the same conditions with the exception of an added 1 mg/ml of G418 to support cells expressing the transgene. ST6GalNAc 1 is an enzme capable of sialylating GalNAc. […]
For analysis, cells are harvested using StemPro Accutase (Life Technologies, Carlsbad, Calif.) and washed with PBS comprising 5% FBS before pelleting by light centrifugation. Cell numbers and viability are determined by trypan blue dye exclusion analysis and cell concentrations are adjusted to 5×10^6 cells/ml in PBS with 5% FBS. […] Cells are combined with 50 μl solutions of antibody being analyzed or control antibodies and incubated for 1 hour at 4° C. […]
(In general: In flow cytometry, cells or beads pass a laser one at a time.)

A short description of data set [4]: E3-STn allograft model, pathological evaluation of H&E stained organs. It counts as in vivo, mouse. The conditions noted are these: 5 treated mice. The procedure: At the end of the study described in Example 22, three mice from the vehicle control group and five mice that received 7G9-1A8 were chosen at random for post-study pathology assessment. Brain, colon, intestine, heart, kidney, liver, lung, mandibular salivary gland, pancreas, spleen, stomach, adrenal gland and thyroid gland organs were collected from each mouse. The organs were fixed in formalin (VWR; Radnor, Pa.) for about 48 hours, transferred to 70% ethanol (Sigma-Aldrich; St.Louis, Mo.), and then processed for standard H&E staining.
The H&E stained tissue slides were examined for pathology review. Liver sections from each animal had multifocal inflammation with or without concomitant hepatocellular necrosis. The histo-pathological changes were minimal to mild in severity. There was no appreciable difference in the morphology of lesions among vehicle control group mice and mice that received 7G9-1A8.

Positions count from the first letter of the chain named. In names and notes the source's numbering stands.

B1: 18C7: anti-STn mouse monoclonal, IgG2c κ, from mouse #4436; VH SEQ ID NO: 4, VL SEQ ID NO: 5 (antibody, V domains shown)
VH: QVTLKESGPGILQPSQTLSLTCSFSGFSLSTFGMGVGWIRQPSGKGLEWLAHIWWDDDKYYNPALKSRLTISKDTSKNQVFLKIANVDTADTATYYCARIAYYYGSERDYWGQGTTLTVSS
VL: QIVLTQSPAIMSASPGEKVTMTCSASSSISYMHWYHQKPGTSPKRWIYDTSKLASGVPARFSGSGSGTSYSLTISSMEAEDAATYYCHQRSSYTFGGGTKLEIKR
With B1, the “mean fluorescence intensity, Neu5,9Ac5Gc-α2,6-GalNAc” value in data set [1] is on record as “about 2,000”.

B2: S3F: 3F1 variable domains combined with IgG2a constant domains; heavy chain SEQ ID NO: 63, light chain SEQ ID NO: 64 (antibody)
heavy: QVQLQQSDAELVKPGASVKISCKASGYTFTDHAIHWVKQKPEQGLDWIGYISPGNGDIKYNEKFKDKVTLTADKSSSTACMHLNSLTSEDSAVYFCKRSLLALDYWGQGTTLTVSSAKTTAPSVYPLAPVCGDTTGSSVTLGCLVKGYFPEPVTLTWNSGSLSSGVHTFPAVLQSDLYTLSSSVTVTSSTWPSQSITCNVAHPASSTKVDKKIEPRGPTIKPCPPCKCPAPNLLGGPSVFIFPPKIKDVLMISLSPIVTCVVVDVSEDDPDVQISWFVNNVEVHTAQTQTHREDYNSTLRVVSALPIQHQDWMSGKEFKCKVNNKDLPAPIERTISKPKGSVRAPQVYVLPPPEEEMTKKQVTLTCMVTDFMPEDIYVEWTNNGKTELNYKNTEPVLDSDGSYFMYSKLRVEKKNWVERNSYSCSVVHEGLHNHHTTKSFSRTPGK
light: DIVMTQSHKFMSTSVGDRVSITCKASQDVGTNIAWYQQKPGRSPKVLIYSASTRHTGVPDRFTGSGSGTDFTLTISNVQSEDLTDYFCQQYSSFPLTFGVGTKLELKRADAAPTVSIFPPSSEQLTSGGASVVCFLNNFYPKDINVKWKIDGSERQNGVLNSWTDQDSKDSTYSMSSTLTLTKDEYERHNSYTCEATHKTSTSPIVKSFNRNEC
As for B2, the “body weight at study termination” value in data set [2] is on record as “overall increase in body weight”. Also, the “Percent Body Weight Change” value is listed as 0% in data set [2] (study day 1); −0.01% in data set [2] (study day 4); −1.29% in data set [2] (study day 8); −1.36% in data set [2] (study day 10); −1.09% in data set [2] (study day 15); −0.51% in data set [2] (study day 18). For the same molecule, the “Percent Body Weight Change” value in data set [2] (study day 23) amounted to 1.49%; in data set [2] (study day 25), 2.17%.

B3: 8C11: anti-STn mouse monoclonal, IgG2b κ, from mouse #4407; VH SEQ ID NO: 8, VL SEQ ID NO: 9 (antibody, V domains shown)
VH: QVQLKESGPGLVAPSQSLSITCTVSGFSLTSYGVSWVRQPPGKGLEWLGVIWGDGSTNYHSALISRLIISKDNSKSQVFLKLNSLQTDDTATYYCTKGFTYWGQGTLVTVSA
VL: QIVLTQSPAIMSASPGEKVTMTCSASSSVSYMHWYQQKSGTSPKRWIFDTSKLASGVPARFSGSGSGTSYSLTISSMEAEDAATYYCQQWSSNLLTFGAGTKLELK
Take B3: the “binding to MDA parental cells lacking STn” value in data set [3] is “No binding”.

B4: 7G9: anti-STn mouse monoclonal, IgG2b κ, from mouse #4407; VH SEQ ID NO: 12, VL SEQ ID NO: 9 (antibody, V domains shown)
VH: B3 VH with S17N, S35N, D72E, D88N, T100V
VL: B3 VL
Turning to B4, in data set [4], the epicardial inflammation result is listed as “not observed” and the “neutrophil aggregates in the muscularis mucosa of the stomach” value was “not observed”. The “liver histopathology (multifocal inflammation, hepatocellular necrosis) vs vehicle control” value in data set [4] (3 vehicle mice) was “no significant difference between the groups”.
